Sequences and labels used below:
B1: Pro-(X)-BMP-9 [human] / itself (parent)
chain: KPLQSWGRGSAGGNAHSPLGVPGGGLPEHTFNLKMFLENVKVDFLRSLNLSGVPSQDKTRVEPPQYMIDLYNRYTSDKSTTPASNIVRSFSMEDAISITATEDFPFQKHILLFNISIPRHEQITRAELRLYVSCQNHVDPSHDLKGSVVIYDVLDGTDAWDSATETKTFLVSQDIQDEGWETLEVSSAVKRWVRSDSTKSKNKLEVTVESHRKGCDTLDISVPPGSRNLPFFVVFSNDHSSGTKETRLELREMISHEQESVLKKLSKDGSTEAGESSHEEDTDGHVAAGSTLAIEGRSSGAGSHCQKTSLRVNFEDIGWDSWIIAPKEYEAYECKGGCFFPLADDVTPTKHAIVQTLVHLKFPTKVGKACCVPTKLSPISVLYKDDMGVPTLKYHYEGMSVAECGCR

The test covers variants of B1. The experiment in a line: SDS-PAGE densitometry after IMAC purification. To be noted: with itself.
In the case of chain 1 G367S, the screen value amounted to 1.29. In the case of chain 1 K335R G367S, the screen value amounted to 3.24. Turning to chain 1 K335R, the screen value amounted to 0.7.

Values taken from article doi:10.1101/2024.10.14.618187, “Molecular basis of interchain disulfide-bond formation in BMP-9 and BMP-10” (bioRxiv, 2024).
